Data set [1] has as its target PsOYE2, Class III OYE-type ene-reductase from Penicillium steckii (Penicillium steckii). Kind of data set: DLS; PsOYE2 in solution; conditions not shown.
Data set [2] has the same target. The data set can be described thus: SEC; PsOYE2 in solution; conditions not shown.
The target is the same in data set [3]. Kind of data set: crystal structure; PsOYE2 without any tag, FMN bound; monoclinic space group P2(1), four dimers in the asymmetric unit; 2.3 Å; interface analysed with PISA.
The next data set has as its system O=C1C=CC(=O)C=C1. The data set can be described thus: steady-state kinetics, NADPH consumption, Michaelis-Menten fit. The note with it: co-substrate NADPH. The data set is classed as biochemical, Penicillium steckii. An excerpt: steady-state kinetics, NADPH consumption, Michaelis-Menten fit on PsOYE4
Substrate in data set [4]: NC(=O)C1=CN([C@@H]2O[C@H](COP(=O)(O)OP(=O)(O)OC[C@H]3O[C@@H](n4cnc5c(N)ncnc54)[C@H](OP(=O)(O)O)[C@@H]3O)[C@@H](O)[C@H]2O)C=CC1
Described as above. The note with it: co-substrate p-benzoquinone. Format: biochemical, Penicillium steckii. The source says:
(§1) steady-state kinetics, NADPH consumption, Michaelis-Menten fit on PsOYE6

Substrate in data set [5]: O=C1C=CC(=O)C=C1
Described as above. The data set is classed as biochemical, Penicillium steckii. The note with it: co-substrate NADPH.
Text: as §1
The source holds these as a separate data set.

Substrate in data set [6]: NC(=O)C1=CN([C@@H]2O[C@H](COP(=O)(O)OP(=O)(O)OC[C@H]3O[C@@H](n4cnc5c(N)ncnc54)[C@H](OP(=O)(O)O)[C@@H]3O)[C@@H](O)[C@H]2O)C=CC1
The data set is described as above. Format: biochemical, Penicillium steckii. The following applies: co-substrate p-benzoquinone. The source says: (§2) steady-state kinetics, NADPH consumption, Michaelis-Menten fit on PsOYE5
The source holds these as a separate data set.

Substrate in data set [7]: O=C1C=CC(=O)C=C1
Described as above. Format: biochemical, Penicillium steckii. The following applies: co-substrate NADPH.
Text: as §2
The source holds these as a separate data set.

Substrate in data set [8]: NC(=O)C1=CN([C@@H]2O[C@H](COP(=O)(O)OP(=O)(O)OC[C@H]3O[C@@H](n4cnc5c(N)ncnc54)[C@H](OP(=O)(O)O)[C@@H]3O)[C@@H](O)[C@H]2O)C=CC1
The data set is described as above. The following applies: co-substrate p-benzoquinone. Format: biochemical, Penicillium steckii. The source says:
(§3) steady-state kinetics, NADPH consumption, Michaelis-Menten fit on PsOYE3
This is another data set of the same source.

Substrate in data set [9]: O=C1C=CC(=O)C=C1
The data set is described as above. Format: biochemical, Penicillium steckii. The note with it: co-substrate NADPH.
Text: as §3
This is another data set of the same source.

Substrate in data set [10]: NC(=O)C1=CN([C@@H]2O[C@H](COP(=O)(O)OP(=O)(O)OC[C@H]3O[C@@H](n4cnc5c(N)ncnc54)[C@H](OP(=O)(O)O)[C@@H]3O)[C@@H](O)[C@H]2O)C=CC1
Described as above. The data set is classed as biochemical, Penicillium steckii. The following applies: co-substrate p-benzoquinone. The source says:
(§4) steady-state kinetics, NADPH consumption, Michaelis-Menten fit on PsOYE1
The source holds these as a separate data set.

Substrate in data set [11]: O=C1C=CC(=O)C=C1
The data set is described as above. The following applies: co-substrate NADPH. The data set is classed as biochemical, Penicillium steckii.
Text: as §4
This is another data set of the same source.

Substrate in data set [12]: NC(=O)C1=CN([C@@H]2O[C@H](COP(=O)(O)OP(=O)(O)OC[C@H]3O[C@@H](n4cnc5c(N)ncnc54)[C@H](OP(=O)(O)O)[C@@H]3O)[C@@H](O)[C@H]2O)C=CC1
The description is as above. The data set is classed as biochemical, Penicillium steckii. The following applies: co-substrate p-benzoquinone. The source says: (§5) steady-state kinetics, NADPH consumption, Michaelis-Menten fit on PsOYE2
The source holds these as a separate data set.

Substrate in data set [13]: O=C1C=CC(=O)C=C1
The data set is described as above. The note with it: co-substrate NADPH. The data set is classed as biochemical, Penicillium steckii.
Text: as §5
This is another data set of the same source.

In the case of “PsOYE2, Class III OYE-type ene-reductase from Penicillium steckii (enzyme)”, the stoichiometry N in [1], in [2] and in [3] was 2 throughout.
For PsOYE4 (Penicillium steckii), in the data set with O=C1C=CC(=O)C=C1, the Km was found to be 1100 ± 100 µM, the kcat was 28 ± 1 s⁻¹ and the kcat/Km turned out to be 26000 M⁻¹ s⁻¹.

B1: PsOYE6 (Penicillium steckii) (protein)
chain: MSSKLFNPMQVGRMQLSTRLAMAPMTRFRVDDDHNPLPIVKDYYAQRGSIPGTLLITEATIISPQAGGYKNVPGIYTDSQIAAWKEITDAVHAKGSYIYLQLWALGRVADPNYLRELGNYDLVSASDIPAGEGAPTPRPLSESDIQSFVKDYAQAAKNAVAAGFDGVEIHAANGYLIDQFIQDNSNQRNDSYGGSVENRARFALEVTQAVVDAIGADRTGIRYSPFSTFQGMRMADPIPQFSYLAKETAKFKLAFTHLVEPRIAGNADVEETPDELEFFLKEYGNATPVIIAGGYKAESAIQAVDEKYKEFDTVIGIGRPWTSNPDLPFRIKANVPLVPYDRDTFYNPKDPKGYIDWAFSPEFKATQVGA
B1: in [4], the Km turned out to be 300 ± 100 µM, the kcat amounted to 53 ± 7 s⁻¹ and the catalytic efficiency (kcat/Km) stood at 170000 M⁻¹ s⁻¹. In data set [5], the Km worked out at 1100 ± 100 µM, the kcat came to 25.5 ± 0.9 s⁻¹ and the catalytic efficiency (kcat/Km) stood at 23000 M⁻¹ s⁻¹.

B2: PsOYE5 (Penicillium steckii) (protein)
chain: MSSSAATRFECADVDPSVLGQPLQFTFSGRSAPNRFLKGAMSERLASFSYSDLSARGIPSPTLIQAYKGWGESQIGINLTGNVMIDPGHLEAAGNPVIPRNAEFSGERFERFKELATAGKENGMLIIAQVGHPGRQTPQYLQPNPISASDVQVQGEPMGMKFAQPRAATHEDIANIIDGFAHAAEYLDKAGFDGIELHGAHGYLLSQFLSSATNLRTDQYGGDLKNRMRLILEVRDEIAKRVRKDFVVGIKINSVEFQDKGFQPDDAKELCRALEEHAFDFVELSGGTYEKSPFAEQKRPSTIERESLFLDFARLIVPGLTKTKTYVTGGFKTVEAMVKALETVDGVGLGRPLCQEPNLCAHILSGKVKGAIDQKIDMYNFGATAGAAGVQIQQMGNHLQPIDLSQEENVGKLFAALGPWLAARQKDVELYRSPAVADYVVPYSKTSML
In the case of B2, in data set [6], the Km stood at 500 ± 200 µM, the catalytic constant (kcat) turned out to be 70 ± 14 s⁻¹ and the catalytic efficiency (kcat/Km) amounted to 150000 M⁻¹ s⁻¹. In addition, in data set [7], the Km stood at 900 ± 100 µM, the catalytic constant (kcat) came out at 23.2 ± 0.9 s⁻¹ and the kcat/Km is 26000 M⁻¹ s⁻¹.

B3: PsOYE3 (Penicillium steckii) (protein)
chain: MAQSNHPDIANKPAEGISYYTPAQVPPAGSAAIPQSDGAQPPKLFTPFQVRGVTFHNRIGLSPLCQYSADDGHMTDWHMAHLGGIAQRGPGFLMVEATAVQANGRITPQDHGLWKDSQIEPLRRVVEFIHSQNQVIGVQLAHAGRKASTVAPWLSSADTATEAVGGWPENVKGPSDIPFHDKFPVPKALTLNEIEQFKQDWVSALKRAVKAGADFVEIHNAHGYLLMSFLSPASNKRTDQYGGSFENRIRLTMEIAQLTRDNIPKDMPVFLRVSATDWLEEAMPNEPSWRIEDTVQLAKALADSGNIDVLDVSSGGNHRAQHIHAKAAFQAPFAIEVKKAVGDRLQVGSVGMIDSAQLASSLLENDGLDFVLVGRGFQKNPGLVWAWAEELDVEISMANQIRWGFSSRGGGVYLKKRHGKM
On to B3, for which, in data set [8], the Km was determined as 200 ± 0 µM, the catalytic constant (kcat) was found to be 64 ± 4 s⁻¹ and the kcat/Km was 350000 M⁻¹ s⁻¹. Also, in data set [9], the Km is 8 ± 1 µM, the kcat was 19.6 ± 1.3 s⁻¹ and the kcat/Km worked out at 2.45e+06 M⁻¹ s⁻¹.

B4: PsOYE1 (Penicillium steckii) (protein)
chain: MTIQYISGEESGLFRPLTISNGSLTLRHRIIHAPLTRNRGVPANPISTPENPNRIWVPGDLIAEYYGQRATEGGLLISEGIPPSLESNGMPGVPGLFTPEQANGWKKVVDAVHAKGGFIFCQLWHAGRATIPQMTGSPAVCPSASVWDSPKECYSHPPVGSTEPVPYANHPPIELSVPHIKQTIQDYCNAAKTAMEIGFDGVEIHGGNGYLPEQFLSSNINKRTDDYGGSPEKRCKFVFELMDEVAKTIGEQNLSIRLSPFGLFNQARGEQRLETWTHLCEGLKKAHPALSYVSFVEPRFEQIFSEEEKDTFLQSWGLKDVTLDRFRKIFGETPFFSAGGFDDKNSWNIVESGKYDGLLFGRYFISNPDLVHRLAKGLPLAPYDRTRFYGPFEDNVFHYTDYPTIDKQ
Take B4: in data set [10], the Michaelis constant (Km) is 300 ± 100 µM, the kcat is 63 ± 8 s⁻¹ and the kcat/Km was 200000 M⁻¹ s⁻¹. In data set [11], the Michaelis-Menten constant (Km) was found to be 700 ± 100 µM, the kcat came to 23.4 ± 1 s⁻¹ and the catalytic efficiency (kcat/Km) was 33000 M⁻¹ s⁻¹.

B5: PsOYE2 (Penicillium steckii) (protein)
chain: MTWPDVPIAAAPGISYFTPAQSPPAGTARNPQTSGKAIPKLFQPLTIRGHTFQNRLGVAPMCQYSADDGHLTPWHMAHYGGIAQRGPGMIIIEATGVVPEGRITPGCVGLWKDSQIAPLKQVVEFAHSQGQKIGIQLAHAGRKASTVPPWLGGVTATNAVGGWTENVKGPSAIPFAEGEIVPKAMTKEDIEEVKTAWVAAVERAVAAGVDFIEIHNAHGYLLSSFLSPSSNQRTDDYGGSFENRIRLSLEISQLTRDTVGPNMPVFLRVSATDWLEKSMPEEKGWKLEDTVEFSRALAAQGAIDLIDISTGGVHAAQKVTSGVGFQVPFAKAVKEAVGQKMLVSAVGTINSGNLAEKILNEDDVDVILVGRAFQRDSGLAWAFAKDLDVEIAMAGQIRWGFTSFRNASEYIQPNSMKASIFD
With B5, in data set [12], the Km came out at 500 ± 100 µM, the turnover number (kcat) was 70 ± 10 s⁻¹ and the catalytic efficiency (kcat/Km) was found to be 140000 M⁻¹ s⁻¹. In addition, the Km in data set [13] is 2 ± 1 µM.

Broadly, the stoichiometry N is a count of units in the complex or per binding partner. The term Km denotes the concentration of substrate that gives half-maximal velocity. As usually defined, the kcat is the maximal rate divided by the concentration of active sites. For orientation: kcat/Km means the second-order rate constant that governs catalysis at low substrate concentration.

These data come from paper PMC12002099, “Recombinant Production and Characterization of Six Ene‐reductases from Penicillium steckii” (Chembiochem, 2025).
